# Results: US20170088602A1 (Bristol-Myers Squibb, published 2017)
# Like-named read-outs stand apart in the source and are kept apart here.
# T1: human myostatin (mature, recombinant; R&D Systems) (human, UniProt O14793 267-375)
# T1 construct: biotinylated in the mRNA display selection; also called GDF-8; mature myostatin
# T1 sequence: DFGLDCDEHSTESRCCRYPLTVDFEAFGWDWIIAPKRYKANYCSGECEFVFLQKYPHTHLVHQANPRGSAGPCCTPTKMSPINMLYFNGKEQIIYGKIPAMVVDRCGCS
# T2: human BMP-11 (GDF-11; R&D Systems) (human, UniProt O95390 299-407)
# T2 sequence (looked up): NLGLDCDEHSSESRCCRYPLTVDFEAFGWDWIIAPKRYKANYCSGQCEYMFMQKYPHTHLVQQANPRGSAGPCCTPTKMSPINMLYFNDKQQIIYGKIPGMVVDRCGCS
# T3: human Activin A (R&D Systems) (human, UniProt P08476 311-426)
# T3 sequence (looked up): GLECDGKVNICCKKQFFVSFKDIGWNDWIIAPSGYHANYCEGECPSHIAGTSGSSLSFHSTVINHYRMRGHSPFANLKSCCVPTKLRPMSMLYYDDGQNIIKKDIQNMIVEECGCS
# B1: ATI-1359 [40K 2-branch PEG] (designed binder)
# chain: MGVSDVPRDLEVVAATPTSLLISWTLPHAGRAHYYRITYGETGGNSPVQEFTVPGRGVTATISGLKPGVDYTITVYAVTVTTTKVIHYKPISINYRTEGSGC
# modifications: 40K 2-branch PEG on the Cys of the EGSGC tail
# B2: ATI-1376 [40K 2-branch PEG] (designed binder)
# chain: MGVSDVPRDLEVVAATPTSLLISWDAPAGLARYYRITYGETGGNSPVQEFTVVGRGNTATISGLKPGVDYTITVYAVTIFRDGPVTWDPISINYRTEGSGCHHHHHH
# modifications: 40K 2-branch PEG on the Cys of the EGSGC tail
# notes: cysteine mutant of 3115_E06
# B3: ATI-1375 [40K 2-branch PEG] (designed binder)
# chain: MGVSDVPRDLEVVAATPTSLLISWDAPRGLARYYRITYGETGGNSPVQEFTVFGRGTTATISGLKPGVDYTITVYAVTIDRDGTRSFDPISINYRTEGSGCHHHHHH
# modifications: 40K 2-branch PEG on the Cys of the EGSGC tail
# notes: cysteine mutant of 3115_D04
# B4: ATI-1377 [40K 2-branch PEG] (designed binder)
# chain: MGVSDVPRDLEVVAATPTSLLISWDAPKGLARYYRITYGETGGNSPVQEFTVVGRGNTATISGLKPGVDYTITVYAVTIFRDGPVTWDPISINYRTEGSGCHHHHHH
# modifications: 40K 2-branch PEG on the Cys of the EGSGC tail
# B5: 3116_A06 H28A (designed binder)
# chain: MGVSDVPRDLEVVAATPTSLLISWSLPAQGKANYYRITYGETGGNSPVQEFTVPGRGVTATISGLKPGVDYTITVYAVTVTDTGYLKYKPISINYRTEIDKPSQHHHHHH
# B6: 3116_A06 N33A (designed binder)
# chain: MGVSDVPRDLEVVAATPTSLLISWSLPHQGKAAYYRITYGETGGNSPVQEFTVPGRGVTATISGLKPGVDYTITVYAVTVTDTGYLKYKPISINYRTEIDKPSQHHHHHH
# B7: 3116_A06 L26A (designed binder)
# chain: MGVSDVPRDLEVVAATPTSLLISWSAPHQGKANYYRITYGETGGNSPVQEFTVPGRGVTATISGLKPGVDYTITVYAVTVTDTGYLKYKPISINYRTEIDKPSQHHHHHH
# B8: 3116_A06 P27A (designed binder)
# chain: MGVSDVPRDLEVVAATPTSLLISWSLAHQGKANYYRITYGETGGNSPVQEFTVPGRGVTATISGLKPGVDYTITVYAVTVTDTGYLKYKPISINYRTEIDKPSQHHHHHH
# B9: 3116_A06 Y85A (designed binder)
# chain: MGVSDVPRDLEVVAATPTSLLISWSLPHQGKANYYRITYGETGGNSPVQEFTVPGRGVTATISGLKPGVDYTITVYAVTVTDTGALKYKPISINYRTEIDKPSQHHHHHH
# B10: 3116_A06 L86A (designed binder)
# chain: MGVSDVPRDLEVVAATPTSLLISWSLPHQGKANYYRITYGETGGNSPVQEFTVPGRGVTATISGLKPGVDYTITVYAVTVTDTGYAKYKPISINYRTEIDKPSQHHHHHH
# B11: ATI-1106 [40K 2-branch PEG] (designed binder)
# chain: MGVSDVPRDLEVVAATPTSLLISWVSPRGRARYYRITYGETGGNSPVQEFTVPGRGSTATISGLKPGVDYTITVYAVTIYRDGMSHHDPISINYRTGSGCHHHHHH
# modifications: 40K 2-branch PEG on the Cys of the GSGC tail
# B12: ATI-1266 [40K 2-branch PEG] (designed binder)
# chain: MGVSDVPRDLEVVAATPTSLLISWTLPHAGRAHYYRITYGETGGNSPVQEFTVPGRGVTATISGLKPGVDYTITVYAVTVTTTSVILYKPISINYRTEGSGCHHHHHH
# modifications: 40K 2-branch PEG on the Cys of the EGSGC tail
# notes: cysteine mutant of 2525_D02
# B13: ATI-1341 [20K Bis-PEG] (designed binder)
# chain: MGVSDVPRDLEVVAATPTSLLISWTLPHAGRAHYYRITYGETGGNSPVQEFTVPGRGVTATISGLKPGVDYTITVYAVTVTTTKVIHYKPISINYRTEGSGCHHHHHH
# modifications: two Adnectins joined through their tail Cys to the two ends of a 20 kDa bis-PEG
# notes: bivalent PEGylated form of the 2987_H07 cysteine mutant
# B14: ATI-1378 [40K 2-branch PEG] (designed binder)
# chain: MGVSDVPRDLEVVAATPTSLLISWSLPNPGNAHYYRITYGETGGNSPVQEFTVPGRGVTATISGLKPGVDYTITVYAVTVTDTGFITYKPISINYRTEGSGCHHHHHH
# modifications: 40K 2-branch PEG on the Cys of the EGSGC tail
# notes: cysteine mutant of 3146_A08
# B15: ATI-1379 [40K 2-branch PEG] (designed binder)
# chain: MGVSDVPRDLEVVAATPTSLLISWSLPHQGKANYYRITYGETGGNSPVQEFTVPGRGVTATISGLKPGVDYTITVYAVTVTDTGYLKYKPISINYRTEGSGCHHHHHH
# modifications: 40K 2-branch PEG on the Cys of the EGSGC tail
# B16: 1979_B06 (designed binder)
# chain: MGVSDVPRDLEVVAATPTSLLISWSLPHAGHVNYYRITYGETGGNSPVQEFTVPGRGVTATISGLKPGVDYTITVYAVTLTKSQMIHYMPISINYRTEIDKPSQHHHHHH
# notes: monoAdnectin with His6 tag; also called ATI-1133
# B17: 2524_H11 (designed binder)
# chain: MGVSDVPRDLEVVAATPTSLLISWSLPHAGHAHYYRITYGETGGNSPVQEFTVPGRGVTATISGLKPGVDYTITVYAVTVSSTKVIVYLPISINYRTEIDKPSQHHHHHH
# B18: 2524_C11 (designed binder)
# chain: MGVSDVPRDLEVVAATPTSLLISWTLPHAGLAHYYRITYGETGGNSPVQEFTVPGRGVTATISGLKPGVDYTITVYAVTLTNSEIILYKPISINYRTEIDKPSQHHHHHH
# B19: 2524_E10 (designed binder)
# chain: MGVSDVPRDLEVVAATPTSLLISWSLPFAGHLNYYRITYGETGGNSPVQEFTVPGRGVTATISGLKPGVDYTITVYAVTLTRSKIIHYMPISINYRTEIDKPSQHHHHHH
# Key:
# [1] = molecular target: T1, human myostatin (mature, recombinant; …); test: SPR format A, 25C
# Excerpt: (§1) Anti-human Fc antibody (Biacore/GE) was immobilized on a Biacore CM5 chip via NHS/EDC coupling according to the manufacturer's instructions. […] A concentration range of anti-myostatin Adnectin was applied across all flow cells in HBSP running buffer. Regeneration of the chip surface between cycles was accomplished with two 30 second pulses of 3M MgCl₂. Kinetic traces of reference-subtracted sensorgrams were fit to a 1:1 binding model using Biaevaluation software.
# [2] = molecular target: T2, human BMP-11 (GDF-11; R&D Systems); test: SPR format A, 25C
# Excerpt: as §1
# [3] = molecular target: T1, human myostatin (mature, recombinant; …); test: cell-based or functional assay
# [4] = molecular target: T2, human BMP-11 (GDF-11; R&D Systems); test: cell-based or functional assay
# [5] = molecular target: T3, human Activin A (R&D Systems); test: cell-based or functional assay
# [6] = molecular target: T1, human myostatin (mature, recombinant; …); test: competitive HTRF (1889E01/myostatin/ActRIIb-Fc sandwich)
# Excerpt: An HTRF assay was used to measure the binding affinities of anti-myostatin Adnectins to myostatin. […] The Eu-W 1024 labeled Streptavidin is used to bind biotinylated 1889E01. […] In the presence of a competitive Adnectin, the HTRF signal decreases.
# [7] = molecular target: T1, human myostatin (mature, recombinant; …); test: cell-based or functional assay; remark: listed apart in the source
# [8] = molecular target: T1, human myostatin (mature, recombinant; …); test: cell-based or functional assay; remark: listed apart in the source
# [9] = molecular target: T1, human myostatin (mature, recombinant; …); test: competitive HTRF, alanine scan
# [10] = molecular target: T3, human Activin A (R&D Systems); test: SPR format A, 25C
# Excerpt: as §1
# [11] = molecular target: T1, human myostatin (mature, recombinant; …); test: cell-based or functional assay; remark: listed apart in the source
# [12] = molecular target: T2, human BMP-11 (GDF-11; R&D Systems); test: cell-based or functional assay; remark: listed apart in the source
# [13] = molecular target: T3, human Activin A (R&D Systems); test: cell-based or functional assay; remark: listed apart in the source
# [14] = molecular target: T1, human myostatin (mature, recombinant; …); test: cell-based or functional assay; remark: listed apart in the source
Binder,Kd [1] [nM],Kd [2] [nM],ARE-luciferase IC50 [3] [nM],ARE-luciferase IC50 [4] [nM],ARE-luciferase IC50 [5] [nM],IC50 [6] [nM],"ARE-luciferase cell-based assay, IC50 relative to parent sequence [7] [fold]",Myostatin ARE-luc IC50 [8] [nM],IC50 [9] [nM],binding result [10],ARE-luciferase IC50 [11] [nM],ARE-luciferase IC50 [12] [nM],ARE-luciferase IC50 [13] [nM],"pSmad2 IC50, 12-point [14] [nM]"
B1,7.9,35.5,0.26,3.1,> 1000,0.36,–,–,–,–,–,–,–,–
B2,8.21,13.4,0.03,0.83,> 1000,0.32,–,–,–,–,–,–,–,–
B3,12.6,33.2,0.17,1.6,> 1000,0.76,–,–,–,–,–,–,–,–
B4,8.21,14.2,0.05,0.78,> 1000,0.15,–,–,–,–,–,–,–,–
B5,–,–,–,–,–,–,> 10,6.2,0.8,–,–,–,–,–
B6,–,–,–,–,–,–,> 10,9.8,2,–,–,–,–,–
B7,–,–,–,–,–,–,> 10,16,2.3,–,–,–,–,–
B8,–,–,–,–,–,–,> 10,10,1,–,–,–,–,–
B9,–,–,–,–,–,–,> 10,5.5,2,–,–,–,–,–
B10,–,–,–,–,–,–,> 10,12,1.4,–,–,–,–,–
B11,–,–,177,1410,> 2000,–,–,–,–,–,–,–,–,–
B12,0.76,2.57,0.12,0.89,2000,0.21,–,–,–,–,–,–,–,–
B13,–,–,0.03,0.14,14,0.13,–,–,–,–,–,–,–,–
B14,14.4,59.6,0.29,5.4,> 1000,1.29,–,–,–,–,–,–,–,–
B15,9.5,21.6,0.1,4.3,> 1000,0.28,–,–,–,–,–,–,–,–
B16,29,489,–,–,–,–,–,–,–,no binding,0.11,3.3,194,12.8
B17,1.12,1.22,–,–,–,–,–,–,–,no binding,0.03,6.2,> 1000,0.11
B18,0.62,0.67,–,–,–,–,–,–,–,no binding,0.1,0.89,765,0.14
B19,1.34,1.42,–,–,–,–,–,–,–,no binding,0.09,5.6,> 1000,0.13
